The source of these data is publication PMC8599813, “Investigating molecular mechanisms of 2A-stimulated ribosomal pausing and frameshifting in Theilovirus”.

Data set [1] addresses Theiler's murine encephalomyelitis virus (TMEV) 2A protein (Theiler's murine encephalomyelitis virus (TMEV)). Nature of the data set: SEC-MALS; Superdex 75 increase 10/300 GL, 20 mM Tris (HCl) pH 7.5, 1.0 M NaCl, 25°C; 100 µl injected at 3.1, 0.8 and 0.38 mg/ml (200, 51.5 and 24.5 µM); Figure 1B at 3.1 mg/ml; monomer and trimer peaks. On the technique in general: Size exclusion chromatography separates by hydrodynamic size, large species first.

Data set [2] deals with T1, TMEV 2A (Theiler's murine encephalomyelitis …, UniProt P08545 923-1055).
T1 sequence: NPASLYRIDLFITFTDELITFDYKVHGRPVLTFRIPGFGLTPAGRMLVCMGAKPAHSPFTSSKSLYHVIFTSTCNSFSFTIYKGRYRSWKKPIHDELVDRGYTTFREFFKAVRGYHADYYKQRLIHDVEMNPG
Nature of the data set: MST; ~140 mM NaCl; EMSA: 10 mM Tris pH 7.4, ~140 mM NaCl, 2 mM Mg acetate, 1 mM DTT, 5% glycerol, tRNA, 50 nM RNA, 37 C 20 min; MST: buffer stated as 1x of 20 mM Tris pH 7.4/80 mM NaCl/4 mM Mg acetate/2 mM DTT (2x), ~140 mM NaCl final, 5 nM RNA, 25 C; ITC: 50 mM Tris pH 7.4, 400 mM NaCl, 25 C. Conditions: protein: recombinant, tags: GST cleaved (3C protease), N-terminal GPLGS remnant, label: 5' Cy5 (EMSA, MST); for Kd: stem-loop/pseudoknot-like. For orientation: Mobility shift assays separate free from complexed probe on a gel.

The target of data set [3] is T1, TMEV 2A. Nature of the data set: EMSA; EMSA: 10 mM Tris pH 7.4, ~140 mM NaCl, 2 mM Mg acetate, 1 mM DTT, 5% glycerol, tRNA, 50 nM RNA, 37 C 20 min; MST: buffer stated as 1x of 20 mM Tris pH 7.4/80 mM NaCl/4 mM Mg acetate/2 mM DTT (2x), ~140 mM NaCl final, 5 nM RNA, 25 C; ITC: 50 mM Tris pH 7.4, 400 mM NaCl, 25 C. Conditions: protein: recombinant, tags: GST cleaved (3C protease), N-terminal GPLGS remnant, label: 5' Cy5.

Data set [4] addresses T1, TMEV 2A. Description: ITC; 400 mM NaCl; ~1:1 stoichiometry; EMSA: 10 mM Tris pH 7.4, ~140 mM NaCl, 2 mM Mg acetate, 1 mM DTT, 5% glycerol, tRNA, 50 nM RNA, 37 C 20 min; MST: buffer stated as 1x of 20 mM Tris pH 7.4/80 mM NaCl/4 mM Mg acetate/2 mM DTT (2x), ~140 mM NaCl final, 5 nM RNA, 25 C; ITC: 50 mM Tris pH 7.4, 400 mM NaCl, 25 C. Conditions: protein: recombinant; tags: GST cleaved (3C protease); N-terminal GPLGS remnant; label: 5' Cy5 (EMSA, MST); none (ITC, SEC-MALS); stem-loop/pseudoknot-like.

The target of data set [5] is T1, TMEV 2A. Nature of the data set: EMSA; ~140 mM NaCl, tRNA; EMSA: 10 mM Tris pH 7.4, ~140 mM NaCl, 2 mM Mg acetate, 1 mM DTT, 5% glycerol, tRNA, 50 nM RNA, 37 C 20 min; MST: buffer stated as 1x of 20 mM Tris pH 7.4/80 mM NaCl/4 mM Mg acetate/2 mM DTT (2x), ~140 mM NaCl final, 5 nM RNA, 25 C; ITC: 50 mM Tris pH 7.4, 400 mM NaCl, 25 C. Conditions: protein: recombinant; tags: GST cleaved (3C protease); N-terminal GPLGS remnant; label: 5' Cy5 (EMSA, MST); hairpin, 7 bp stem.

Usually stoichiometry N stands for the number of molecules, sites or subunits per partner or assembly. The term Kd denotes the constant that tells how readily two partners part at equilibrium.

As to “Theiler's murine encephalomyelitis virus (TMEV) 2A protein (natural protein)”, the stoichiometry N in data set [1] was found to be 3.
For CCACAAGGUGCGGUGCUAACUAAAUCCCUAGCACCCCAGGCAGGAA (structured_RNA) [TMEV 1], the dissociation constant Kd in data set [2] was 484 ± 90 nM.
With CCACAACGUGCGGUGCUAACUAAAUCCGUAGCACCCCAGGCAGGAA (structured_RNA) [TMEV 1 G17C+C38G], the binding result in data set [3] (compensatory pair 17-38) is listed as “no binding”.
For CAAGGUGCGGUGCUAACUAAAUCCCUAGCACCCC (structured_RNA) [TMEV 9], the binding result in data set [3] (pseudoknot-like, G17-C38 pair) is given as “binds”.
As to CAACGUGCGGUGCUAACUAAAUCCGUAGCACCCC (structured_RNA) [TMEV 9 G17C+C38G], the binding result in data set [3] (compensatory pair 17-38) is listed as “no binding”.
For the molecule CAACGUGCGGUGCUAACUAAAUCCCUAGCACCCC (structured_RNA) [TMEV 9 G17C], the binding result in data set [3] (stem-loop) was “no binding”.
As to GCGGUGCUAACUAAAUCCCUAGCACCCCAGGCAGGAA (structured_RNA) [TMEV 2], the binding result in data set [2] (hairpin) is reported as “no binding”.
In the case of CCACAAGGUGCGGUGCUAACUAAAUCCCUAGCACCCC (structured_RNA) [TMEV 6], the Kd came out at 280 ± 40 nM in data set [2] (none (ITC, SEC-MALS)) and 67 ± 7 nM in data set [4].
In the case of GGUGCGGUGCUAACUAAAUCCCUAGCACCCC (structured_RNA) [TMEV 12], the binding result in data set [3] (stem-loop) is reported as “no binding”.
For the molecule GGGUUUUUCAGCCACAAGGUGCGGUGCUAACUAAAUCCCUAGCACCCC (structured_RNA) [TMEV 3], the equilibrium dissociation constant (Kd) in data set [2] was 495 ± 110 nM.
For GCGGUGCUAACUAAAUCCCUAGCACCCC (structured_RNA) [TMEV 4], in data set [5], the binding result is “no binding”.
With CACAAGGUGCGGUGCUAACUAAAUCCCUAGCACCCC (structured_RNA) [TMEV 7], the binding result in data set [3] (stem-loop/pseudoknot-like) is given as “binds”.
Same read-out and setting: to ACAAGGUGCGGUGCUAACUAAAUCCCUAGCACCCC (structured_RNA) [TMEV 8] belongs “binds”.
